Patent US20260209294A1, “USE OF RECOMBINANT PROTEIN IN PREPARING DRUG FOR INHIBITING ANEURYSM” (HUAZHONG UNIVERSITY OF SCIENCE AND TECHNOLOGY, priority 2022, published 2026)

What was measured:
[1] = test system: TGFβ1 signaling pathway in VSMC cells (aortic smooth muscle cells); experiment: VSMC cells treated with AGGF1 protein: Western blot, ELISA, RT-PCR of TGFβ1 signaling; format: cell-based
Experimental: FIG. 8 depicts that AGGF1 inhibits TGF-β1 and ERK1/2 signaling pathways and a TGF-β1-induced VSMC inflammation. […] Subsequently, cell lysates are collected for the western blot analysis of p-ERK1/2, T-ERK1/2, and p-Smad3. The GAPDH serves as a loading control. […] After 48 hours, the cell lysates are collected for the western blot analysis of p-ERK1/2, T-ERK1/2, and p-Smad3. […] The GAPDH serves as a loading control. […] Subsequently, mRNA is extracted using a Trizol method and reverse transcribed to obtain cDNA for a real-time RT-PCR detection of Il-6, Mcp1, Mmp2, and Mmp9 mRNA levels. […] Subsequently, mRNA is extracted using the Trizol method and reverse transcribed to obtain cDNA. The real-time RT-PCR is performed to analyze the mRNA levels of Il-6, Mcp1, Mmp2, and Mmp9. *, P<0.05; **, P<0.01; ***, P<0.001; n=3/group.
(§1) The β-actin serves as a loading control. […] The GAPDH serves as a loading control. […] The mRNA is extracted using the Trizol method and reverse transcribed to obtain cDNA. […] Cells are transfected with different plasmids of LAP-TGF-β1-FLAG and the integrin α7-FLAG, and treated with the purified AGGF1 or AGGF1-RDDdel for 24 hours, with grouping as shown in FIG. K. *, P<0.05; **, P<0.01; ***, P<0.001; n≥3/group.
(§2) In vitro experiments were performed using aortic smooth muscle cells and HEK293T cells. As shown in A-C of FIG. 8 and A-F of FIG. 9, whether with recombinant AGGF1 protein, AGGF1-FLAG overexpression, or AGGF1 silencing, Western blot analysis and ELISA experimental results verified that AGGF1 inhibits the TGFβ1 signaling pathway (Smad3 and ERK1/2) and the level of the mature TGFβ1. […] In the Western blot analysis of FIG. 10, it was verified that LAP-TGFβ1 interacts with integrin α7 through the RGD sequence, which is also the molecular mechanism by which integrin α7 inhibits TGFβ1.

[2] = test system: BAPN-induced aortic aneurysm; experiment: β-aminopropionitrile (BAPN)-induced aortic aneurysm model; format: in vivo, C57BL/6 male mice; conditions: BAPN-fed mice
Excerpt: FIG. 14 depicts an AGGF1 treatment for a β-aminopropionitrile (BAPN)-induced aortic aneurysm. […] The bar graphs below show the intimal thickness (1st image), the adventitia thickness (2nd image), and the total carotid artery wall thickness (3rd image). […] The bar graphs on the right show the percentage of the positive area for respective immunostaining quantifications. […] The GAPDH serves as a loading control. *, P<0.05; **, P<0.01; ***, P<0.001; n≥8/group for mouse studies, other sample sizes n=4/group.
β-aminopropionitrile is a lysyl oxidase (LOX) inhibitor that is readily soluble in water. Three-week-old mice fed with 0.25% BAPN have a very high incidence of the thoracic aortic aneurysm after 4 weeks. Three-week-old C57BL/6 male mice were divided into 4 groups, with ultrasound detection of the aorta on day 28, followed by euthanasia and collection of the aorta for Western Blotting experiments and histochemical staining.

[3] = test system: mature TGFβ1 in HEK293T cells; experiment: ELISA of TGF-β1 levels in culture medium of HEK293T cells transfected with LAP-TGF-β1-FLAG and integrin α7-FLAG; format: cell-based; conditions: purified protein 24 hours
Experimental: as §1, §2

[4] = test system: TAC-induced mouse aneurysm model; experiment: TAC (transverse aortic constriction)-induced aneurysm model, i.p. recombinant AGGF1 or AGGF1-RDDdel protein; format: in vivo, C57BL/6 mice; conditions: 0.5 mg/kg i.p., day 21

B1: AGGF1 protein: recombinant human AGGF1 protein with His tag, SEQ ID NO:1, expressed from pet28-AGGF1 in Escherichia coli BL21 (DE3) (protein, listed as Homo sapiens)
chain: MASEAPSPPRSPPPPTSPEPELAQLRRKVEKLERELRSCKRQVREIEKLLHHTERLYQNAESNNQELRTQVEELSKILQRGRNEDNKKSDVEVQTENHAPWSISDYFYQTYYNDVSLPNKVTELSDQQDQAIETSILNSKDHLQVENDAYPGTDRTENVKYRQVDHFASNSQEPASALATEDTSLEGSSLAESLRAAAEAAVSQTGFSYDENTGLYFDHSTGFYYDSENQLYYDPSTGIYYYCDVESGRYQFHSRVDLQPYPTSSTKQSKDKKLKKKRKDPDSSATNEEKDLNSEDQKAFSVEHTSCNEEENFANMKKKAKIGIHHKNSPPKVTVPTSGNTIESPLHENISNSTSFKDEKIMETDSEPEEGEITDSQTEDSYDEAITSEGNVTAEDSEDEDEDKIWPPCIRVIVIRSPVLQIGSLFIITAVNPATIGREKDMEHTLRIPEVGVSKFHAEIYFDHDLQSYVLVDQGSQNGTIVNGKQILQPKTKCDPYVLEHGDEVKIGETVLSFHIHPGSDTCDGCEPGQVRAHLRLDKKDESFVGPTLSKEEKELERRKELKKIRVKYGLQNTEYEDEKTLKNPKYKDRAGKRREQVGSEGTFQRDDAPASVHSEITDSNKGRKMLEKMGWKKGEGLGKDGGGMKTPIQLQLRRTHAGLGTGKPSSFEDVHLLQNKNKKNWDKARERFTENFPETKPQKDDPGTMPWVKGTLE
modifications: His tag
[1]; RT-PCR, TGF-β1 24 hours then AGGF1 24 hours
  TGFβ1-induced inflammation (Il6, Mcp1, Mmp2, Mmp9): inhibit
[1]; Western blot and ELISA, protein treatment 48 hours
  level of the mature TGFβ1: inhibits
[1]; Western blot, TGF-β1 15 minutes then AGGF1 10 minutes
  TGFβ1 signaling pathway (Smad3 and ERK1/2): inhibits
[2]
  incidence of BAPN-induced aortic dissection: no effect
  level of the mature TGFβ1 (Western blot, ascending aorta): inhibited
  p-ERK (Western blot, ascending aorta): inhibited
  p-Smad2 (Western blot, ascending aorta): inhibited
  p-Smad3 (Western blot, ascending aorta): inhibited
  survival rate of aneurysm model mice: significantly improve
[2]; day 28
  aortic inflammation: significantly inhibited
  aortic remodeling: significantly inhibited
  aortic thickening (H&E staining): significantly inhibited
  vascular expansion (ascending aorta, ultrasound): inhibitory effect
[3]
  inhibition of mature TGFβ1 by integrin α7: enhance
[4]
  level of the mature TGFβ1 (Western blot, ascending aorta, FIG. 7): inhibit
  p-ERK1/2 (Western blot, ascending aorta, FIG. 7): inhibit
  p-Smad3 (Western blot, ascending aorta, FIG. 7): inhibit
